Data from the nanobody polyreactivity screen of Harvey et al. (2022).

Assay: yeast display, Sf9 membrane polyspecificity reagent, FACS + sequencing; frameworks hold sequencing errors
How it was run: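 Sorting gates, low and high (top ~1%), were placed on anti-HA fluorescence to track expression and on streptavidin fluorescence to track reagent binding. A clone's polyreactivity label is taken from the gate it came out of. The reagent was 10% biotinylated, detergent-solubilized Sf9 membrane, applied for 1 hour at 4 °C to galactose-induced yeast display cells.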

Row | Sequence | polyreactivity (PSR sort gate)
1 | QVQLVESGGGLVQAGGSLRLSCAASGSTFDSYRMGWYRQAPGKERELVASISSRGGSTYYADSVKGRFTISRDNAKNTVSLQMNSLKPEATAVYYCAADWLSWFHGYGMYYWGQGTQVTVSS | low polyreactivity
2 | QVQLVESGGGLVQAGGSLRLSCAASGSTFDTNAMGWYRQPPGKERELVASISSAGSTNYADSVKGRFTISRDNAKNTVYLQMNSLKPEDTAVYYCAKYYGQFYPTTLGYWGQGTQVTVSS | low polyreactivity
3 | QVQLVESGGGLVQAGGSLRLSCAASGSTFDTYAMGWYRQAPGKEMELVAVISSGGGTYYADSVKGRFTISRDNAKNTVYLQMNSLKPEDTAVYYCAADRPTPYGYESTYDYWGQGTQVTVSS | low polyreactivity
4 | QVQLVESGGGLVQAGGSLRLSCAASGSTFDTYGMGWYIQAPGKERELDASISSRGGSTYYADSVEGRFTISRDNAKNSVYLQMNSLKPDDTAVYYCAADWLSWFHGYGMYYWGQGTKVTVSS | low polyreactivity
5 | QVQLVESGGGLVQAGGSLRLSCAASGSTFDTYTRGWYRQAPGKERELVAAITTSGGSTYYADSVKGRFTISRDNAKNTVYLQMNSLKPEDTAVYYCAADFFPGGYPEMDYWGQGTQVTVSS | high polyreactivity
6 | QVQLVESGGGLVQAGGSLRLSCAASGSTFDVYAMGWYRQAPGKERELVAAITWIGGSTYYADSVKGRFTISRDNAKNTVYLQMNSLKPEDTAVYYCARHDYGWVDYWGQGTQVTVSS | high polyreactivity
7 | QVQLVESGGGLVQAGGSLRLSCAASGSTFDVYAMGWYRQAPGKERELVAALTSGGTTNYADSVKGRFTISRDNAKNTVYLQMNSLKPEDTAVSYCNARLTLRSYDYWGQGTLVTVSS | low polyreactivity
8 | QVQLVESGGGLVQAGGSLRLSCAASGSTFDYNSMGWYRQAPGKERELVATINDSGGNTYYADSVKGRFTISRDNAKNTVYLQMNSLKPEDTAVYYCATVGYLYTPVVVTWWDWGDYWGQGTQVTVSS | low polyreactivity
9 | QVQLVESGGGLVQAGGSLRLSCAASGSTFDYNTMGWYRQAPGKERELVAVITYSGGRTYYADSVKGRFTISRDNAKNTVYLQMNSLKPEDTAVYYCNARYGYPLGHSIYYYWGQGTQVTVSS | low polyreactivity
10 | QVQLVESGGGLVQAGGSLRLSCAASGSTFDYYAMGWYRQAPGKERELVAAISRTGGRTYYADSVKGRFTISRDNAKNTVYLQMNSLKPEDTAVYYCNAVTRIGGGDYDYWGQGTQVTGSS | low polyreactivity
11 | QVQLVESGGGLVQAGGSLRLSCAASGSTFDYYAMVWYRQAPGKEREFVAAISYSGGSTYYADSVKGRFTISRDNAKNTVYLQMNSLKPEDTAVYYCAAEGYYYNLYYWGQGTEVTVSS | high polyreactivity
12 | QVQLVESGGGLVQAGGSLRLSCAASGSTFDYYARGGYRQAPGKERELVAAISRTGGRTYYADSVKGRFTISRDNAKNTVNLQMNSLKPEDTAVYNCNAVTRIGGGDYDYWGQGTQVTVSS | low polyreactivity
13 | QVQLVESGGGLVQAGGSLRLSCAASGSTFDYYDRGWFRQAPGKERELVAAISSGGDSTYYADSVKGRFTISRDNEKNTVYLQMNSLKPEDTAVYYCAAAVYYGQSVWYYYWGQGTQVTVSS | high polyreactivity
14 | QVQLVESGGGLVQAGGSLRLSCAASGSTFDYYTIGWYRQAPGKERELVAAISSSGGSTYYADSVKGRFTISRDNAKNTVYLQMNSLKPEDTAVYYCAADPSPYGDEYDYWGQGTQVTVSS | low polyreactivity
15 | QVQLVESGGGLVQAGGSLRLSCAASGSTFDYYTMGWYRQAPGKERELVAAISYSGSRTYYADSVKGRFTISRDNAKNTVYLQMNSLKPEDTAVYYCARVASSVWYKQEYSYYNFDYWGQGTQVTVSS | high polyreactivity
16 | QVQLVESGGGLVQAGGSLRLSCAASGSTFEANAMGWYRQAPGKERELVAVITWTGGSTYYADSVKGRFTISRDNAKNTVYLQMNSLKPEDTAVDYCAADGVVPGRFFWPAHEYDYWGQGTQVTVSS | low polyreactivity

Row | Sequence | polyreactivity (PSR sort gate)
17 | QVQLVESGGGLVQAGGSLRLSCAASGSTFEGNAMVWYRPAPGKERELVAAISSGGRTYYADSVKGRFTISRDNAKNTVYLQMNSLKPEDTAVYYCAAYVRRGFDWGQGTQVTVSS | high polyreactivity
18 | QVQLVESGGGLVQAGGSLRLSCAASGSTFEQNAMGWYRQAPGKEREFVAAITGSGGSTYYADSVKGRFTISRDNAKNTVYLQMNSLKPEDTAVYYCAADIQDGLYWWDIYDYWGQGTQVTVSS | low polyreactivity
19 | QVQLVESGGGLVQAGGSLRLSCAASGSTFEQYAMGWYRQAPGKERELVASISTGGGRTYYADSVKGRFTISRDNAKNTVFLQMNSLKPEDTAVYYCNKRYRGYKTGYSRYDYWGQGTQVTVSS | low polyreactivity
20 | QVQLVESGGGLVQAGGSLRLSCAASGSTFERYAMGWYRPAPGKERELVAAISAIGDSTYYADSVKGRFTISRDNAKNTVYLQMNSLKPEDTAVYYCAARYTRYHIGRGYYYWGQGTQVTVSS | high polyreactivity
21 | QVQLVESGGGLVQAGGSLRLSCAASGSTFESNAMGWYRQAPGKERELVAAISSSGGSTYYADSVKGRFTISRDNAKNTVYLQMNSLKPEDTAVYYCNKGGLSDYDYWGQGTQVTVSS | high polyreactivity
22 | QVQLVESGGGLVQAGGSLRLSCAASGSTFESNAMGWYRQAPGKERELVAAISTSGGSTYYADSVKGRFTISRDNAKNTVYLQMNSLKPEDKAVYYCNAYPEAVRWKYNYWGQGTQVTVSS | low polyreactivity
23 | QVQLVESGGGLVQAGGSLRLSCAASGSTFESNTMGWYRQAPGKERELVAASSYSGGRTYYADSVKGRFTISRVNAKNTVYFQMNILKPEDTAVYSCAARWSVSYRMYYWGQGTQVTVSS | high polyreactivity
24 | QVQLVESGGGLVQAGGSLRLSCAASGSTFETYAMGLYRKAPGKDRELVAAITWAGDTSYADSVKGRFTISRDNAKHTVYLQMNSLKPEDTAVYYCAKDNGRAYFGRSPYDYWGQGTQVTVTS | low polyreactivity
25 | QVQLVESGGGLVQAGGSLRLSCAASGSTFEVYAMGWYRQAPGKERELVAVINVSDGSTYYADSVKGRFTISRDNAKNTVYLQMNSLKPEDTAVYYCAAYLYNRPYQLTGYYDGYGYWGQGTQVTVSS | low polyreactivity
26 | QVQLVESGGGLVQAGGSLRLSCAASGSTFEVYTMGWSIQSPGKVRELVATISGDDGSTYYADSVKGRFTISRDNAKNTVYLQMNSLKPEDTAVYYCAADYGGFPNYYSTGDYWGQGTQVTVSS | low polyreactivity
27 | QVQLVESGGGLVQAGGSLRLSCAASGSTFEWNAMGWYRQAPGKERELVAAISWRTTRTYYADSVKGRFTISRDNAKNTVYLQMNSLKPEDTAVYYCAVVTSPYYGGYEYWGQGTQVTVSS | high polyreactivity
28 | QVQLVESGGGLVQAGGSLRLSCAASGSTFEYNAMGWYRQAPGKERELLADISYSDGSTYYADSVKGRFTISRDNAMNTVYLQMNSLKPEDTGVYYCAAYSGYGGVSMYYWGQGTHVTVSS | low polyreactivity
29 | QVQLVESGGGLVQAGGSLRLSCAASGSTFEYNAMGWYRQAPGKERELVASSTNYADSGKGRFTISRDNAKNTVYLQMNSLKPEDTAVYYCAREQGVNRNHDYWGQGTQVTVSS | low polyreactivity
30 | QVQLVESGGGLVQAGGSLRLSCAASGSTFEYNAMGWYRQAPGKERELVASSTNYADSVKGRFTISRDNAKNTVYLQMNSLIPEDTAVYYCAREQGVNRNHDYWGQGTQVTVSS | low polyreactivity
31 | QVQLVESGGGLVQAGGSLRLSCAASGSTFEYNAMGWYRQAPGKERELVASSTNYADSVKGRFTISRDNAKNTVYLQMNSLKPEDTAVYYCAKTYWYPYGYWGQGTQVTVSS | low polyreactivity
32 | QVQLVESGGGLVQAGGSLRLSCAASGSTFEYNVMGWYRQAPGKERELVAAITSGASTNYADSVKGRFTISRDNAKNSVYLQMNSLKPEDTAVYYCAAGESGSFFIYYYWGQGTQVTVSS | low polyreactivity
